Assay results from patent publication US20230218753A1.

Key:
[1] = target: activated human complement C1s (UniProt P09871); assay: competition binding with 50 pM biotinylated TNT005
[2] = target: activated human complement C1s (UniProt P09871); assay: direct binding

Sequence of activated human complement C1s (P09871 16-688): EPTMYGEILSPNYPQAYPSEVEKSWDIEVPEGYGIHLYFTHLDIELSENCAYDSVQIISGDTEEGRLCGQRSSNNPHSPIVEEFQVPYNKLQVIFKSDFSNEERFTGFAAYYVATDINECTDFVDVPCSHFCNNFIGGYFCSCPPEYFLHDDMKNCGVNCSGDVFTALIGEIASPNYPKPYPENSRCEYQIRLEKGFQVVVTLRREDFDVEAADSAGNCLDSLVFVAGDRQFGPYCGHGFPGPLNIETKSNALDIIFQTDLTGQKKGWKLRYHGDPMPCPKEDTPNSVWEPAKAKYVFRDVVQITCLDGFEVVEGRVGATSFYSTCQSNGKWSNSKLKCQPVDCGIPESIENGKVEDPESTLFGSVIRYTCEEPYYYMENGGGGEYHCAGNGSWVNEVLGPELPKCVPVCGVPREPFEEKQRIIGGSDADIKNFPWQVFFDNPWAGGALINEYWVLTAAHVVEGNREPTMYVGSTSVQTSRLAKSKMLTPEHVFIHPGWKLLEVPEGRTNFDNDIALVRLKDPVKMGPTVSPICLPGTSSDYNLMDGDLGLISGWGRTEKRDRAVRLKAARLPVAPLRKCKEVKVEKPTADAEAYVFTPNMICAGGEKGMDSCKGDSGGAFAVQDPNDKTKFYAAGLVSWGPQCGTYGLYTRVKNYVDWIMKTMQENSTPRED

IC50 [1]: 0.0395 nM | EC50 [2]: 0.0559 nM
Substance: TNT005
